Our source for the EC50 values is patent US20100260668A1 (published 2010).

Experiment [1] addresses T1, DLL4 (DLL4 ECD/His tag, R&D Systems 1506-D4-050) (UniProt Q9NR61 27-529).
T1 construct: extracellular domain; not shown: His tag
As to the kind of experiment: Direct bind ELISA on DLL4; DLL4 domain N-term., HC long, LC long. On the technique in general: An ELISA detects its analyte on a solid surface through an enzyme-linked reagent.

For experiment [2], the target named is T1, DLL4 (DLL4 ECD/His tag, R&D Systems …). As to the kind of experiment: Direct bind ELISA on DLL4; DLL4 domain N-term., HC long, LC short.
Experiment [3] shares this target. As to the kind of experiment: Direct bind ELISA on DLL4; DLL4 domain C-term., HC long, LC long.

B1: DVD495 (DLL4/VEGF DVD-Ig) (bispecific antibody, human IgG1)
VH: EVQLQQSGPELVKPGASVKMSCKASGYTFTSYVINWVKQKPGQGLEWIGLINPYNDGTKYNEKFKVKATLTSDKSSSTAYMELSSLTSEDSAVYYCASYYYGSRYYFDYWGQGTTLTVSSASTKGPSVFPLAPEVQLVESGGGLVQPGGSLRLSCAASGFTISDYWIHWVRQAPGKGLEWVAGITPAGGYTYYADSVKGRFTISADTSKNTAYLQMNSLRAEDTAVYYCARFVFFLPYAMDYWGQGTLVTVSS
VL: DIQMTQSSSYLSVSLGGRVTITCKASDHINNWLAWYQQKPGNAPRLLISGATSLETGVPSRFSGSGSGKDYTLSITSLQTEDVATYYCQQYWSIPLTFGAGTKLELKRTVAAPSVFIFPPDIQMTQSPSSLSASVGDRVTITCRASQDVSTAVAWYQQKPGKAPKLLIYSASFLYSGVPSRFSGSGSGTDFTLTISSLQPEDFATYYCQQSYTTPPTFGQGTKVEIKR
notes: HC linker long, LC linker long; also called DVD495H; DVD495L
In general, EC50 refers to the concentration giving half of the maximal effect. Higher therefore signals lower potency in that assay. B1 displayed an EC50 in experiment [1] of 0.33 nM.

B2: DVD501 (DLL4/VEGF DVD-Ig) (bispecific antibody, human IgG1)
VH: EVQLQQSGPELVKPGASVKMSCKASGYTFTSYVINWVKQKPGQGLEWIGLINPYNDGTKYNEKFKVKATLTSDKSSSTAYMELSSLTSEDSAVYYCASYYYGSRYYFDYWGQGTTLTVSSASTKGPSVFPLAPEVQLVESGGGLVQPGGSLRLSCAASGFTISDYWIHWVRQAPGKGLEWVAGITPAGGYTYYADSVKGRFTISADTSKNTAYLQMNSLRAEDTAVYYCARFVFFLPYAMDYWGQGTLVTVSS
VL: DIQMTQSSSYLSVSLGGRVTITCKASDHINNWLAWYQQKPGNAPRLLISGATSLETGVPSRFSGSGSGKDYTLSITSLQTEDVATYYCQQYWSIPLTFGAGTKLELKRTVAAPDIQMTQSPSSLSASVGDRVTITCRASQDVSTAVAWYQQKPGKAPKLLIYSASFLYSGVPSRFSGSGSGTDFTLTISSLQPEDFATYYCQQSYTTPPTFGQGTKVEIKR
notes: HC linker long, LC linker short; also called DVD501H; DVD501L
In experiment [2], B2 returned an EC50 of 0.18 nM.

B3: DVD496 (VEGF/DLL4 DVD-Ig) (bispecific antibody, human IgG1)
VH: EVQLVESGGGLVQPGGSLRLSCAASGFTISDYWIHWVRQAPGKGLEWVAGITPAGGYTYYADSVKGRFTISADTSKNTAYLQMNSLRAEDTAVYYCARFVFFLPYAMDYWGQGTLVTVSSASTKGPSVFPLAPEVQLQQSGPELVKPGASVKMSCKASGYTFTSYVINWVKQKPGQGLEWIGLINPYNDGTKYNEKFKVKATLTSDKSSSTAYMELSSLTSEDSAVYYCASYYYGSRYYFDYWGQGTTLTVSS
VL: DIQMTQSPSSLSASVGDRVTITCRASQDVSTAVAWYQQKPGKAPKLLIYSASFLYSGVPSRFSGSGSGTDFTLTISSLQPEDFATYYCQQSYTTPPTFGQGTKVEIKRTVAAPSVFIFPPDIQMTQSSSYLSVSLGGRVTITCKASDHINNWLAWYQQKPGNAPRLLISGATSLETGVPSRFSGSGSGKDYTLSITSLQTEDVATYYCQQYWSIPLTFGAGTKLELKR
notes: HC linker long, LC linker long; also called DVD496H; DVD496L
In experiment [3], B3 yielded an EC50 of 5.59 nM.

B4: DVD519 (DLL4/VEGF DVD-Ig) (bispecific antibody, human IgG1)
VH: EVQLQQSGPELEKPGASVKISCKASGYSFTGYNMNWVKQSNGKSLEWIGNIDPYFGGTNYNQKFKGKATLTVDKSSSTAYMQLKSLTSEDSAVYYCARNYDYDGGCFDYWGQGTTLTVSSASTKGPSVFPLAPEVQLVESGGGLVQPGGSLRLSCAASGFTISDYWIHWVRQAPGKGLEWVAGITPAGGYTYYADSVKGRFTISADTSKNTAYLQMNSLRAEDTAVYYCARFVFFLPYAMDYWGQGTLVTVSS
VL: QAVVTQESALTTSPGETVTLTCRSSTGAVTTSNYANWVQEKPDHLFTGLIGGTNNRAPGVPARFSGSLIGDKAALTITGAQTEDEAIYFCALWYSNHWVFGGGTKLTVLGQPKAAPSVTLFPPDIQMTQSPSSLSASVGDRVTITCRASQDVSTAVAWYQQKPGKAPKLLIYSASFLYSGVPSRFSGSGSGTDFTLTISSLQPEDFATYYCQQSYTTPPTFGQGTKVEIKR
notes: HC linker long, LC linker long; also called DVD519H; DVD519L
Regarding B4, the concentration giving a half-maximal response (EC50) in experiment [1] came out at 1.53 nM.

B5: DVD525 (DLL4/VEGF DVD-Ig) (bispecific antibody, human IgG1)
VH: EVQLQQSGPELEKPGASVKISCKASGYSFTGYNMNWVKQSNGKSLEWIGNIDPYFGGTNYNQKFKGKATLTVDKSSSTAYMQLKSLTSEDSAVYYCARNYDYDGGCFDYWGQGTTLTVSSASTKGPSVFPLAPEVQLVESGGGLVQPGGSLRLSCAASGFTISDYWIHWVRQAPGKGLEWVAGITPAGGYTYYADSVKGRFTISADTSKNTAYLQMNSLRAEDTAVYYCARFVFFLPYAMDYWGQGTLVTVSS
VL: QAVVTQESALTTSPGETVTLTCRSSTGAVTTSNYANWVQEKPDHLFTGLIGGTNNRAPGVPARFSGSLIGDKAALTITGAQTEDEAIYFCALWYSNHWVFGGGTKLTVLGQPKAAPDIQMTQSPSSLSASVGDRVTITCRASQDVSTAVAWYQQKPGKAPKLLIYSASFLYSGVPSRFSGSGSGTDFTLTISSLQPEDFATYYCQQSYTTPPTFGQGTKVEIKR
notes: HC linker long, LC linker short; also called DVD525H; DVD525L
In experiment [2], B5 displayed a half-maximal effective concentration (EC50) of 1 nM.

B6: DVD520 (VEGF/DLL4 DVD-Ig) (bispecific antibody, human IgG1)
VH: EVQLVESGGGLVQPGGSLRLSCAASGFTISDYWIHWVRQAPGKGLEWVAGITPAGGYTYYADSVKGRFTISADTSKNTAYLQMNSLRAEDTAVYYCARFVFFLPYAMDYWGQGTLVTVSSASTKGPSVFPLAPEVQLQQSGPELEKPGASVKISCKASGYSFTGYNMNWVKQSNGKSLEWIGNIDPYFGGTNYNQKFKGKATLTVDKSSSTAYMQLKSLTSEDSAVYYCARNYDYDGGCFDYWGQGTTLTVSS
VL: DIQMTQSPSSLSASVGDRVTITCRASQDVSTAVAWYQQKPGKAPKLLIYSASFLYSGVPSRFSGSGSGTDFTLTISSLQPEDFATYYCQQSYTTPPTFGQGTKVEIKRTVAAPSVFIFPPQAVVTQESALTTSPGETVTLTCRSSTGAVTTSNYANWVQEKPDHLFTGLIGGTNNRAPGVPARFSGSLIGDKAALTITGAQTEDEAIYFCALWYSNHWVFGGGTKLTVLG
notes: HC linker long, LC linker long; also called DVD520H; DVD520L
As to B6, in experiment [3], the response was half-maximal at 17.3 nM (EC50).

B7: DVD449 (DLL4/VEGF DVD-Ig) (bispecific antibody, human IgG1)
VH: QVQLVQSGAEVKKPGASVKISCKASGYSFTAYYIHWVKQAPGQGLEWIGYISSYNGATNYNQKFKGRVTFTTDTSTSTAYMELRSLRSDDTAVYYCARDYDYDVGMDYWGQGTLVTVSSASTKGPSVFPLAPEVQLVESGGGLVQPGGSLRLSCAASGFTISDYWIHWVRQAPGKGLEWVAGITPAGGYTYYADSVKGRFTISADTSKNTAYLQMNSLRAEDTAVYYCARFVFFLPYAMDYWGQGTLVTVSS
VL: DIVMTQSPDSLAVSLGERATISCRASESVDNYGISFMKWFQQKPGQPPKLLIYAASNQGSGVPDRFSGSGSGTDFTLTISSLQAEDVAVYYCQQSKEVPWTFGGGTKVEIKRTVAAPSVFIFPPDIQMTQSPSSLSASVGDRVTITCRASQDVSTAVAWYQQKPGKAPKLLIYSASFLYSGVPSRFSGSGSGTDFTLTISSLQPEDFATYYCQQSYTTPPTFGQGTKVEIKR
notes: HC linker long, LC linker long; also called DVD449H; DVD449L
For B7, the EC50 in experiment [1] came out at 0.36 nM.

B8: DVD455 (DLL4/VEGF DVD-Ig) (bispecific antibody, human IgG1)
VH: QVQLVQSGAEVKKPGASVKISCKASGYSFTAYYIHWVKQAPGQGLEWIGYISSYNGATNYNQKFKGRVTFTTDTSTSTAYMELRSLRSDDTAVYYCARDYDYDVGMDYWGQGTLVTVSSASTKGPSVFPLAPEVQLVESGGGLVQPGGSLRLSCAASGFTISDYWIHWVRQAPGKGLEWVAGITPAGGYTYYADSVKGRFTISADTSKNTAYLQMNSLRAEDTAVYYCARFVFFLPYAMDYWGQGTLVTVSS
VL: DIVMTQSPDSLAVSLGERATISCRASESVDNYGISFMKWFQQKPGQPPKLLIYAASNQGSGVPDRFSGSGSGTDFTLTISSLQAEDVAVYYCQQSKEVPWTFGGGTKVEIKRTVAAPDIQMTQSPSSLSASVGDRVTITCRASQDVSTAVAWYQQKPGKAPKLLIYSASFLYSGVPSRFSGSGSGTDFTLTISSLQPEDFATYYCQQSYTTPPTFGQGTKVEIKR
notes: HC linker long, LC linker short; also called DVD455H; DVD455L
In the case of B8, in experiment [2], a half-maximal response (EC50) required 0.24 nM.

B9: DVD450 (VEGF/DLL4 DVD-Ig) (bispecific antibody, human IgG1)
VH: EVQLVESGGGLVQPGGSLRLSCAASGFTISDYWIHWVRQAPGKGLEWVAGITPAGGYTYYADSVKGRFTISADTSKNTAYLQMNSLRAEDTAVYYCARFVFFLPYAMDYWGQGTLVTVSSASTKGPSVFPLAPQVQLVQSGAEVKKPGASVKISCKASGYSFTAYYIHWVKQAPGQGLEWIGYISSYNGATNYNQKFKGRVTFTTDTSTSTAYMELRSLRSDDTAVYYCARDYDYDVGMDYWGQGTLVTVSS
VL: DIQMTQSPSSLSASVGDRVTITCRASQDVSTAVAWYQQKPGKAPKLLIYSASFLYSGVPSRFSGSGSGTDFTLTISSLQPEDFATYYCQQSYTTPPTFGQGTKVEIKRTVAAPSVFIFPPDIVMTQSPDSLAVSLGERATISCRASESVDNYGISFMKWFQQKPGQPPKLLIYAASNQGSGVPDRFSGSGSGTDFTLTISSLQAEDVAVYYCQQSKEVPWTFGGGTKVEIKR
notes: HC linker long, LC linker long; also called DVD450H; DVD450L
Molecule B9 showed an EC50 in experiment [3] of 1.99 nM.

B10: DVD472 (VEGF/DLL4 DVD-Ig) (bispecific antibody, human IgG1)
VH: EVQLVESGGGLVQPGGSLRLSCAASGFTISDYWIHWVRQAPGKGLEWVAGITPAGGYTYYADSVKGRFTISADTSKNTAYLQMNSLRAEDTAVYYCARFVFFLPYAMDYWGQGTLVTVSSASTKGPSVFPLAPEVQLVESGGGLVQPGGSLRLSCAASGFTFTDNWISWVRQAPGKGLEWVGYISPNSGFTYYADSVKGRFTISADTSKNTAYLQMNSLRAEDTAVYYCARDNFGGYFDYWGQGTLVTVSS
VL: DIQMTQSPSSLSASVGDRVTITCRASQDVSTAVAWYQQKPGKAPKLLIYSASFLYSGVPSRFSGSGSGTDFTLTISSLQPEDFATYYCQQSYTTPPTFGQGTKVEIKRTVAAPSVFIFPPDIQMTQSPSSLSASVGDRVTITCRASQDVSTAVAWYQQKPGKAPKLLIYSASFLYSGVPSRFSGSGSGTDFTLTISSLQPEDFATTYYCQQSYTGTVTFGQGTKVEIKR
notes: HC linker long, LC linker long; also called DVD472H; DVD472L
Molecule B10 came in with a 50% effective concentration (EC50) in experiment [3] of 2.78 nM.

B11: DVD477 (DLL4/VEGF DVD-Ig) (bispecific antibody, human IgG1)
VH: EVQLVESGGGLVQPGGSLRLSCAASGFTFTDNWISWVRQAPGKGLEWVGYISPNSGFTYYADSVKGRFTISADTSKNTAYLQMNSLRAEDTAVYYCARDNFGGYFDYWGQGTLVTVSSASTKGPSVFPLAPEVQLVESGGGLVQPGGSLRLSCAASGFTISDYWIHWVRQAPGKGLEWVAGITPAGGYTYYADSVKGRFTISADTSKNTAYLQMNSLRAEDTAVYYCARFVFFLPYAMDYWGQGTLVTVSS
VL: DIQMTQSPSSLSASVGDRVTITCRASQDVSTAVAWYQQKPGKAPKLLIYSASFLYSGVPSRFSGSGSGTDFTLTISSLQPEDFATTYYCQQSYTGTVTFGQGTKVEIKRTVAAPDIQMTQSPSSLSASVGDRVTITCRASQDVSTAVAWYQQKPGKAPKLLIYSASFLYSGVPSRFSGSGSGTDFTLTISSLQPEDFATYYCQQSYTTPPTFGQGTKVEIKR
notes: HC linker long, LC linker short; also called DVD477H; DVD477L
B11 returned an EC50 in experiment [2] of 0.69 nM.
